Measurements taken from patent US9567641B2, “Combination therapy for the treatment of cancer using an anti-C-met antibody” (SAMSUNG ELECTRONICS CO., LTD., priority 2013, dated 2017).

Legend:
Assay type in all cases: cell-based
[1] = test system: MKN45 gastric cancer cell line; test: Synthetic lethal screening: siRNA plus anti-c-Met antibody, sensitization index (SI) by CellTiter Blue; settings: MKN45 cells, 5 days
Description: To search genes capable of increasing efficacy when suppressed together with an anti-c-Met antibody, synthetic lethal screening was conducted using MKN45 gastric cancer cell line (JCRB, JCRB0254). The synthetic lethal screening was conducted using a total of 1310 genes related to c-Met including 638 genes of EGFR library (Science Signaling, 3, ra67).
First, 0.3 ul of RNAiMax (Life Technologies) and a mixture of two different kinds of 20 nM siRNAs (Qiagen) were added to a 96-well plate, which was incubated at a room temperature for 15 min, wherein RNAiMax and siRNAs were diluted in Opti-MEM (Life Technologies) and a total mixture volume was adjusted to reach 22 ul or so. 78 ul of MKN45 cells diluted in a 5% FBS-containing RPMI1640 medium (GIBCO) were seeded onto each well of the 96-well plate so that each well contained 5000 cells. […]
After 5 days, 20 ul of a diluting solution of CellTiter Blue (Promega, G8081) and HBSS at 1:1 was added to each well, which was incubated at 37° C. for 4 hours. Then, the number of cells was counted via fluorescence signals (560/590 nm), which were measured using Envision 2104 Multi-label Reader (Perkin Elmer).
Since an increase degree in the efficacy of an anti-c-Met antibody to be caused by the expression suppression of each gene was measured as a reduction in cell viability, SI (sensitization index) was calculated. […]

[2] = test system: HT29 colorectal cancer cell line; test: Cell viability, CellTiter Glo, combination with L3-1Y/IgG2 antibody; settings: L3-1Y/IgG2 antibody alone (negative control siRNA), 0-2 ug/ml, 72 h
Description: The efficacy of the combination administration of FGFR3 siRNA and L3-1Y/IgG2 antibody was examined in a colorectal cancer cell line on which the anti-c-Met antibody has no effects. For this, HT29 (ATCC, HTB-38) cells were used. As a control group, All Negative control siRNA (Qiagen, cat. no. 1027281) was used, and as a target siRNA, a mixture of two kinds of siRNAs (see Table 7) that had effects during the screening was used. Transfection was carried out by the same procedures as Example 3.1 and after 24 hours, the cultured cells were treated with L3-1Y/IgG2 antibody at 0 ug/ml, 0.016 ug/ml, 0.08 ug/ml, 0.4 ug/ml, and 2 ug/ml, respectively.
72 hours later after the treatment, 100 uL of CellTiter Glo solution (Promega, G7572) was added to each well, which was allowed to stay at a room temperature for 30 min. The number of cells was counted via luminescence signals, which were recorded using Envision 2104 Multi-label Reader (Perkin Elmer).

[3] = test system: EBC1 lung cancer cell line; test: Cell viability, CellTiter Blue, combination with L3-1Y/IgG2 antibody; settings: for concentration at which the L3-1Y/IgG2 antibody showed the maximized efficacy: 5 days
Description: The efficacy of the combination administration of RAF1 siRNA and L3-1Y/IgG2 antibody was examined in lung cancer cell line on which the anti-c-Met antibody has an effect. For this, EBC1 (JCRB, JCRB0820) cells were used. As a control group, All Negative control siRNA (Qiagen, cat. no. 1027281) was used, and as a target siRNA, a mixture of two kinds of siRNAs (see Table 7) that had effects during the screening was used. Transfection was carried out by the same procedures as Example 3.1 and after 24 hours, the cultured cells were treated with L3-1Y/IgG2 antibody at 0 ug/ml, 0.016 ug/ml, 0.08 ug/ml, 0.4 ug/ml, or 2 ug/ml. After 5 days of treatment, for cell number counting, 20 ul of a diluting solution of CellTiter Blue (Promega, G8081) and HBSS at 1:1 was added to each well, which was incubated at 37° C. for 4 hours. Then, the number of cells was counted via fluorescence signals (560/590 nm), which were measured using Envision 2104 Multi-label Reader (Perkin Elmer).

[4] = test system: L3-1Y/IgG2 antibody resistance acquired EBC1 lung cancer cells; test: Cell viability, CellTiter Glo, resistance-acquired cell line; settings: L3-1Y/IgG2 antibody alone
Description: To verify whether or not the resistance acquired by repetitive administration of anti-c-Met antibody can be overcome by BCL2L1 inhibition, L3-1Y/IgG2 antibody resistance acquired EBC1 cells, where the resistance against L3-1Y/IgG2 antibody is acquired by treating EBC1 lung cancer cells (JCRB, JCRB0820) with the L3-1Y/IgG2 antibody for at least 3 months, were used. The L3-1Y/IgG2 antibody resistance acquired EBC1 lung cancer cells were prepared referring to Example 4.3.
5000 cells of the L3-1Y/IgG2 antibody resistance acquired EBC1 cells were seeded onto a 96-well plate and 24 hours after, the plate was treated with a BCL2 family inhibitor, ABT-263 (Abbott Laboratories) and 72 hours later after the antibody treatment, a change in the number of cells was measured using CellTiter Glo assay. ABT-263 was treated at a fixed concentration of 0.5 uM, and the L3-1Y/IgG2 antibody was treated by ⅕ dilution each time starting from 2 ug/ml.

B1: L3-1Y/IgG2: anti-c-Met antibody: huAbF46-H4-A1 heavy chain variable region, human IgG2 hinge and constant region, kappa light chain with H36Y (antibody)
heavy: EVQLVESGGGLVQPGGSLRLSCAASGFTFTDYYMSWVRQAPGKGLEWLGFIRNKANGYTTEYSASVKGRFTISRDNSKNTLYLQMNSLRAEDTAVYYCARDNWFAYWGQGTLVTVSSASTKGPSVFPLAPCSRSTSESTAALGCLVKDYFPEPVTVSWNSGALTSGVHTFPAVLQSSGLYSLSSVVTVPSSNFGTQTYTCNVDHKPSNTKVDKTVERKCCVECPPCPAPPVAGPSVFLFPPKPKDTLMISRTPEVTCVVVDVSHEDPEVQFNWYVDGVEVHNAKTKPREEQFNSTFRVVSVLTVVHQDWLNGKEYKCKVSNKGLPAPIEKTISKTKGQPREPQVYTLPPSREEMTKNQVSLTCLVKGFYPSDIAVEWESNGQPENNYKTTPPMLDSDGSFFLYSKLTVDKSRWQQGNVFSCSVMHEALHNHYTQKSLSLSPGK
light: DIQMTQSPSSLSASVGDRVTITCKSSQSLLASGNQNNYLAWYQQKPGKAPKMLIIWASTRVSGVPSRFSGSGSGTDFTLTISSLQPEDFATYYCQQSYSRPYTFGQGTKVEIKRTVAAPSVFIFPPSDEQLKSGTASVVCLLNNFYPREAKVQWKVDNALQSGNSQESVTEQDSKDSTYSLSSTLTLSKADYEKHKVYACEVTHQGLSSPVTKSFNRGEC
B1 was tested, and the “final concentration that is approximately IC25~IC35” value [1] was about 0.0625 μl/ml, the “cancer cell growth inhibitory efficacy (cell viability)” value [2] was “did not occur” and the “concentration at which the L3-1Y/IgG2 antibody showed the maximized efficacy” value ([3]; co-treated with RAF1 siRNA) was 0.016 µg/mL. For the same molecule, the “decrease of the concentration of maximized efficacy by RAF1 siRNA co-treatment” value ([3]; with versus without RAF1 siRNA) was “⅕”, the “concentration at which the L3-1Y/IgG2 antibody showed the maximized efficacy” value ([3]; without RAF1 siRNA (negative control siRNA)) was 0.08 µg/mL and the “cancer cell growth inhibitory effect (cell viability)” value [4] was “did not occur”.
